The target of assay [1] is T1, Histidine-rich glycoprotein (HRG), purified from human plasma (human, UniProt P04196 19-525).
T1 chain: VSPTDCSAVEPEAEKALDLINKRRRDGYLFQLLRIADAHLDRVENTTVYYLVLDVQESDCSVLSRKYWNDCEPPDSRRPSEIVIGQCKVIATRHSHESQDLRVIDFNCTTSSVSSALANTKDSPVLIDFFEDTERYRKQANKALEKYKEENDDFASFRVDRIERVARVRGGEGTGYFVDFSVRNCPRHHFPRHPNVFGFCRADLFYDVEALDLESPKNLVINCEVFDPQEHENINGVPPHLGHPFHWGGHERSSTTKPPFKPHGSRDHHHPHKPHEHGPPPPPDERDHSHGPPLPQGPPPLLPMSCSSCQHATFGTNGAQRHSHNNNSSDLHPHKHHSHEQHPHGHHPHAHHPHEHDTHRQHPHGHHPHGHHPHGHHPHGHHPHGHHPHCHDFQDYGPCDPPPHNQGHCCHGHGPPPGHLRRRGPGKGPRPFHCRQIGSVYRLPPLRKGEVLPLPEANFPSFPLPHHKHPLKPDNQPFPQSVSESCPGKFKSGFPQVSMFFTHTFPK
Nature of the assay: SPR.

Assay [2] has as its target T2, Histidine-rich glycoprotein (HRG), purified from human plasma (human, UniProt P04196 19-525).
T2 construct: histidine-rich glycoprotein, human, 75 kDa plasma protein; source: purified from human plasma
T2 sequence (looked up): T1 chain
The assay can be described thus: SPR; BIAcore; exCLEC-1A-Fc fusion protein immobilised on a CM5 sensor chip; HRG flowed over. The note with it: both partners purified.

For assay [3], the target named is T2, Histidine-rich glycoprotein (HRG), …. The assay can be described thus: SPR; BIAcore; HRG purified from human plasma (5 μg/mL) immobilised on a CM5 chip; exCLEC-1A-Fc (3.125, 6.25, 12.5 or 25 μg/mL) or human recombinant exCLEC-1A flowed for 120 s. The note with it: both partners purified.

B1: human recombinant exCLEC-1A protein (domain or fragment)
chain: QYYQLSNTGQDTISQMEERLGNTSQELQSLQVQNIKLAGSLQHVAEKLCRELYNKAGAHRCSPCTEQWKWHGDNCYQFYKDSKSWEDCKYFCLSENSTMLKINKQEDLEFAASQSYSEFFYSYWTGLLRPDSGKAWLWMDGTPFTSELFHIIIDVTSPRSRDCVAILNGMIFSKDCKELKRCVCERRAGMVKPESLHVPPETLGEGD
Consider B1, for which, in assay [1], binding was put at a Kd of 400 nM.

B2: extracellular domain of CLEC-1A-Fc (exCLEC-1A-Fc) fusion protein (Fc fusion, UniProt Q8NC01 74-280, looked up)
chain: B1 chain
notes: extracellular domain of CLEC-1A; Source, limits and the kind of Fc are told only in the Transparent Methods (Document S1), if at all
With B2, the Kd is 10 nM in assay [2] and 7 nM in assay [3].

(Values after PMC7267745, “Histidine-Rich Glycoprotein Inhibits High-Mobility Group Box-1-Mediated Pathways in Vascular Endothelial Cells through CLEC-1A” (iScience, 2020).)
